According to PMC12301328, “Identification of a preferred DNA binding sequence and novel regulon member for CadR in Pseudomonas aeruginosa PAO1”:

What was measured:
[1] = molecular target: CadR from Pseudomonas aeruginosa PAO1 (PaCadR) (Pseudomonas aeruginosa PAO1); experiment: not stated; purified PaCadR in solution (Supplementary Figure S7); method not given
[2] = molecular target: CadR from Pseudomonas aeruginosa PAO1 (PaCadR) (Pseudomonas aeruginosa PAO1); experiment: native gel or EMSA; adaptation of a Ferguson plot of the DNA-bound PaCadR species on native PAGE (Supplementary Figure S6); PaCadR bound to its consensus DNA
PaCadR [3] = molecular target: T1, PaCadR (Pseudomonas aeruginosa PAO1, UniProt Q9HXV1 1-156); experiment: EMSA; 20-80 nM PaCadR; EMSA: 1X CutSmart buffer, 1 mM DTT, 3 mM EDTA, 5 nM each DNA, 37 C, 20 min; BLI: 20 mM Tris-Cl pH 7.5, 100 mM NaCl, 0.01% Tween-20, 1 mM DTT, 37 C; details: protein: recombinant; chain copies: 2; label: 5' IRDye-800 on ConL strand; blunt
T1 sequence: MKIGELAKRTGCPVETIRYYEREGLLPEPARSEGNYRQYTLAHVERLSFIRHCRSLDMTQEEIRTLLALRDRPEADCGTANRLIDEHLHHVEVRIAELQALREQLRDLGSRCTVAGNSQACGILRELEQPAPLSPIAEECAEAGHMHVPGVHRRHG

PaCadR [4] = molecular target: T1, PaCadR; experiment: EMSA; 50 nM PaCadR; not significantly different from WT; EMSA: 1X CutSmart buffer, 1 mM DTT, 3 mM EDTA, 5 nM each DNA, 37 C, 20 min; BLI: 20 mM Tris-Cl pH 7.5, 100 mM NaCl, 0.01% Tween-20, 1 mM DTT, 37 C; details: protein: recombinant; chain copies: 2; label: 5' IRDye-700 on ST2R strand; blunt
PaCadR [5] = molecular target: T1, PaCadR; experiment: BLI; no added metal; EMSA: 1X CutSmart buffer, 1 mM DTT, 3 mM EDTA, 5 nM each DNA, 37 C, 20 min; BLI: 20 mM Tris-Cl pH 7.5, 100 mM NaCl, 0.01% Tween-20, 1 mM DTT, 37 C; details: protein: recombinant; chain copies: 2; label: 5' biotin on ST2R strand; blunt

CadR from Pseudomonas aeruginosa PAO1 (PaCadR) (from UniProt A0A0H2ZEP1 1-156) (natural protein)
stoichiometry N [1]: 2 | stoichiometry N [2]: 2

B1: Control (EMSA) (dsDNA)
DNA 1: CCTCTCTATGGGCAGTCGGTGATCTAGGAATTCGTGCAGAGGTGACGTCATAGAATTCGCATCCCTCCAGAAGCTTGGAC
DNA 2: GTCCAAGCTTCTGGAGGGATGCGAATTCTATGACGTCACCTCTGCACGAATTCCTAGATCACCGACTGCCCATAGAGAGG
binding result (PaCadR [3]): no binding

B2: ST2_CadR_mt12 (dsDNA)
DNA 1: CTAGGAATTCGTGCAGAGGTGAAACCCTGTAGTGACTACAGGGTTCATCCCTCCAGAAGCTTGGAC
DNA 2: GTCCAAGCTTCTGGAGGGATGAACCCTGTAGTCACTACAGGGTTTCACCTCTGCACGAATTCCTAG
binding result (PaCadR [4]): binds

B3: Control (BLI) (dsDNA)
DNA 1: CTAGGAATTCGTGCAGAGGTGACGTCATAGAATTCGCATCCCTCCAGAAGCTTGGAC
DNA 2: GTCCAAGCTTCTGGAGGGATGCGAATTCTATGACGTCACCTCTGCACGAATTCCTAG
binding result (PaCadR [5]): no binding
